From the DeepSol protein solubility set

Test: soluble on expression in E. coli; label from the status in PepcDB or PDB records

Sequence | soluble on expression in E. coli
MTMKEKKLKIDISGVDPICNKSKGDDFYDVVNRQLSRRSFLKGGLGVAVSSFMLSPLMAGCTSSKGTARSSAGLGFQAIAGNRTDVVDVPVGYRAQPFLPWGTPLVPGAGEFKTDASNSALDQARQVGSHHDGMHFFPIDVKEGGASSKEGLLVMNHEYVDPQILHASFSPNAPRPQQEVLKEMMAHGVSVAHIIRKPDGEWQLVEGSPYNRRITASTPMQMSGPVAGHDKLVTRFSPDGTKTRGTINNCSHGHTPWGTYLTCEENWAGCFMNDDDTHPREHERYGVNRENSRYYWETATPGLDETLRFNASSTGSTAADDYRNEPNHFGWIVEIDPFNAKSTPVKRSMLGRFAHEGIVFAPAVEGEPLVAYSGDDSRFEYIYKFVSAKPYYKATASGELLNEGTLYVAQFNDDGTGRWLPLDIENSEFQAKASEAGVGFHSQADVLLNTRLAADVMGATKMDRPEWGAVHPTTKEVYFSLTNNTRRTEVQTNAVNPRAENAYGHIVRWSEDNQQSAESFHWDIFLMGGEAGTRTPNAEGKDLTLTSNNQFACPDGLWFDHRGTLWIQTDMSGELLSEGSFGNNGMYAANPESGELKRFLVGPVDCEITGVVTTPDGKTMFVNVQHPGDRLAPGKFSLEHHHHHH | soluble
MGSDKIHHHHHHMTDITVAETSAPDTIKAFEERLMQVSDTLPKRLKQCADYVGANKDRIAVSTVAEMAEGAGVQPSAFMRFCQIFGFSGFSEMQKLFRDSLVGGWPDYSTRLHHLRETASGSPSALLAEFVEAGRVSLEGLLQTVDPQLLEQAVACLSTAGMIHIVGLRRSFPVASYIAYAFEKMAVPAMLHSGVGKLESQHAIRDGDVVLAITFAPYSTETLDLVEQVSARGISVVAITDTVVNPLRKLGTITLSVAEVDFGAFRSLSATLCLAIALSVAVGTARQQD | not soluble
GPLGSMTTKQTVSLFIWLPESKQKTLFISTKNHTQFELNNIIFDVTLSTELPDKEPNAIITKRTHPVGKMADEMRKYEKDHPKVLFLESSAIHDMMSSREEINALLIKNNIPIPNSFSVKSKEEVIQLLQSKQLILPFIVKPENAQGTFNAHQMKIVLEQEGIDDIHFPCLCQHYINHNNKIVKVFCIGNTLKWQTRTSLPNVHRCGIKSVDFNNQHLEDILSWPEGVIDKQDIIENSANRFGSKILEDPILLNLTSEAEMRDLAYKVRCALGVQLCGIDFIKENEQGNPLVVDVNVFPSYGGKVDFDWFVEKVALCYTEVAKI | soluble
QVQLQQSGTELVKSGASVKLSCTASGFNIKDTHMNWVKQRPEQGLEWIGRIDPANGNIQYDPKFRGKATITADTSSNTAYLQLSLTSEDTAVYYCATKVIYYQGRGAMDYWGQGTTLTVS | soluble
SPFDTGPELESQIRNQYGVDVHVVPVLDTLNEAETLDRVAMQAARTIGPLVDSNAIIGVAWGATLSAVSRHLTRKMTHDSIVVQLNGAGNMQTTGITYASDIMRRFGSAYGARVEQFPVPAFFDHASTKTAMWNERSVQRILDLQARMSIAIFGVGSVDSDYPSHVYAGGYLDEHDLTMLAADDVVGDVATVFFRSDGSSDGITLNERSTGPSHEQLRQVRRRICVVSGASKINGLQGALAAGLATDLILDEASARRLVSFNGHS | soluble
MPIEIERRFLIGNDNWRQYADEPLLLRQGYLSVEKERTVRVRIAGKQAWLTLKGYISEISRSEFEYEIPLADAEKMMETMCPFKMEKWRYPVRWGGSLFEIDVFLGDNAPLVVAEIELPDENADFDRPDWLGREITADGMFTNAYLSRHPFSSWKNAV | not soluble
MEAPTVLDVGCGDGARTLANLPPRSVGLDFSRAGLDLAAETVPDSRLVQGDMGSLPVTTDSVDAITAYHAVFHVQRDQHPEVYREFARVLRPGGTVLMTLPSGQFETVRRGWMGGSMFFSAPGRRATLDQLADAGFTETETVTATDPLGSDSEFVFATLADALEHHHHHH | not soluble
TEQTNVLVLCAGGGTSGLLANALNKAAEEYHVPVKAAAGGYGAHMDIMKEYQLIILAPQVASNYEDIKQDTDRLGIKLAKTQGAEYIKLTRDGQAALDFVQQQFEN | not soluble
MSEVVKKFMYLNRKAPYGTIYAWEALEVVLIGAAFDQDVCVLFLDDGVYQLTRGQDTKGIGMKNFSPTYRTLGDYEVRRIYVDRDSLEARGLTQDDLVEIAFEDMETEEEFDNIVEVIDSARVSELMNESDAVFSF | soluble
SPDEIAQVRFLIVGRTGWIANMVAELLEQRGERYAFASFRLEQREACERELDALRPQRVLNVLGSLGVRTSTGARTTGARPSAVTYWAC | soluble
MSLYVSKLFTSQQWRELKLISYVTENADAIGVKDKELSKALNISMLTLQTCLTNMQFMKEVGGITYKNGYITIWYHQHCGLQEVYQKALRHSQSFKLLETLFFRDFNSLEELAEELFVSLSTLKRLIKKTNAYLMHTFGITILTSPVQVSGDEHQIRLFYLKYFSEAYKISEWPFGEILNLKNCERLLSLMIKEVDVRVNFTLFQHLKILSSVNLIRYYKGHSAVYDNKKTSQRFSQLIQSSLEFQDLSRLFHLKFGLYLDETTIAEMFSNHVNDQLEIGYAFDSIKQDSPTGCRKVTNWVHLLDELEIRLNLSVTNKYEVAVILHNTTVLKEEDITANYLFFDYKKSYLNFYKQEHPHLYKAFVAGVEKLMRSEKEPISTELTNQLIYAFFITWENSFLKVNQKDEKIRLLVIERSFNSVGNFLKKYVGEFFSITNFNELDALTIDLEEIEKQYDVIVTDVMVGKSEELEIFFFHKMIPEAIIDKLNAFLTSALQQEGHHHHHH | soluble
MMTYDRNRNAITTGSRVMISGTGHTGIIKAIESEGLDAGQIRRGKTVIVEGCEGKFAPVELIRLGMN | not soluble
MSLTPPLAPKTVAALHRLGIRTLEELRQNGSVKAFLLLKASGLTLTKSTLWQLESLLDGTPPQEMSQAHKARLLAELKNHPPVAAFPPQEEMEHFMCEALRQAEQSSADGEIPVGAVIVSDGKIIASAHNTCIADCNVSRHAEINALAQAGREIQNYRLDGCDIYITLEPCAMCASALIQARIRRVIYGAAEPKTGAAGSIVNLFADKRLNTHTAIRGGILQEECRAVLSRFFQNKREGHHHHHH | soluble
MLAERGANITGLDISGPMLQQGREKAQATGVDDRVEFMRGDAARLPFPDDHFDTVFAMRFFHLADTPAAFLAEMRRVSKEQVFFDTFNRFSTRSIYNWALPMGSRLYSRWEIDRLLDGAGLELTDANHDWLLPYGFYRKIPNELAASFRSLDTALGGTPLGEKLASVSYWNTHVLEHHHHHH | not soluble
MIFDKNFSYAFDENACEKCGGKCCTGESGNIFASKEELEVLRKHLNLESKEFAEKYLRKVGFKMSFKEVECEDGFACIFFDTQKRNCSIYDFRPKQCRTFPFWEYFKTHQKELEKECIGICYLSLEHHHHHH | not soluble
MVRKLKTHEQKLLKKTDFMSWQVDQQGKQGDMLRKFYVKKREHYALYNTLAAKSREVADLIKNLSESDPFRSKCTEDMLTKFYAAGLVPTSDTLERIGKVTGASFARRRLPVVMRNIGMCESVKTASDLVEQGHVRIGTKLVTDPAFMVTRSSEDMITWTKASKIKKHVMDYNNTRDDFDLMD | not soluble
MHNLVPAPKQTQSVLIKNATVHTVIQGVLTNTDVLIENGKISALGPQLSTNTTASTQVVDASGKHLYPGLIALDTSLGLEHHHHHH | not soluble
MTVVTTADTSQLYALAARHGLKLHGPLTVNELGLDYRIVIATVDDGRRWVLRIPRRAEVSAKVEPEARVLAMLKNRLPFAVPDWRVANAELVAYPMLEDSTAMVIQPGSSTPDWVVPQDSEVFAESFATALAALHAVPISAAVDAGMLIRTPTQARQKVADDVDRVRREFVVNDKRLHRWQRWLDDDSSWPDFSVVVHGDLYVGHVLIDNTERVSGMIDWSEARVDDPAIDMAAHLMVFGEEGLAKLLLTYEAAGGRVWPRLAHHIAERLAFGAVTYALFALDSGNEEYLAAAKAQLAAAE | not soluble
MGSDKIHHHHHHIPFDESIQTVDDVNLAVIGIYDAFKSSALYSGNLTILPDLQADLVYGVNGNTNTFGDIWRWKDILATNTSIEAVYAGLYNVINRCNFMLDRVDRVRNNTTDDKDLYKLDQCCGEAYFARAIAYSELVKMFCKAYESDEDAANQLGVILTKHYQGNEEMKRASLKASYEFILEDLDRAAQLLALDKDYDPSVDGALFNNATYFNEYTVYALRARVALYMRKWDEAIKYSSKVIDSEYYLLASCTRTISSGVSYYKYMWTDDMSTEAIWKVGFTINSYGGKLGQIFLNYNHVNYRPDYVPANWVFGLYDSNDLRPETIFQTLQTGFSHGLSWPLLIKYAGNNEFIAANILHVSMPKVLRLSEQYLIRAEAYVQQAQPDYGRAGKDITTLRTARYSTYGGSTALSASNAMEVIEAERVKELYMEGFRLHDLKRWHKGFERKPQDQSLANGSSLKVEADDPLFVWPIPQHELDAPGSQVQPNESNK | not soluble
MSLFPGDIEELARRIITDFTPLGLMVSTAESCTGGLIAGALTEIAGSSAVVDRGFVTYTNDAKRDMLGVGTETLTTFGAVSRQTALQMAHGALYRSRANFAVAVTGIAGPGGGSAEKPVGLVHLATKARNGNVLHHEMRYGDIGRTEIRLATVRTALEMLIALNQAGSV | soluble
MGSDKIHHHHHHMLAVEMRRIYKVYPDGVVALKGVDFTVEEGEIHGLLGENGAGKSTLMRILYGEIKPTKGEVKVFGDKVEFNGPWDAIRKGIAMVYQHFTLIPTFTVLENLYLSMLTINPNITINEVRKLAKEKMKDIGFSVPLDDVVEDLPIGIQQRVEIIKALMANAKILILDEPTSVLTPLEVEELFKTLRKLKENGITVIFITHKLKEVKEITDRVTVLRRGEVVGVAKTKEVSERDLAKMMVQREIVMEIKKSPASPGNTVLRVEDLWVKDDRGLDAVKGVSFELKEGEILGIAGVQGNGQKELAEALAGIRRIEKGRIELLGRDVTELSADKRYKAGLAYVPDSRKVGLVLDMSVVENVILTNLPSVMRGRRISWEKANKIGKEIVERFDVLVSSLSTPIKHLSGGNQQKVMVGREIIREPKVVIVSEPTQGLDIGATEFIRKTLVSLRDQGKGILLISTDLDEILQLSDRIAVMYEGKIMAIGKVEEFTLEKLGLLMGGVNA | not soluble
MTTTTTFKGVDPNSRNSSRVLRPPGGGSNFSLGFDEPTEQPVRKNKMASNIFGTPEENQASWAKSAGAKSSGGREDLESSGLQRRNSSEASSGDFLDLKGEGDIHENVDTDLPGSLGQSEEKPVPAAPVPSPVAPAPVPSRRNPPGGKSSLVLG | soluble
GMNQSIIFTEQLTWDVQLSAIHFTAQQQGMVIDCYIGQKVLEHLAAEKINNSEQALSLFEQFRFDIEEQAEKLIEQEAFDVQGHIQVERVD | soluble
MGSDKIHHHHHHMKEKTVAIFNGYYIPHLGGVERYTYNIAKKLTEKGYRVIIITTQHDENLTNEEIQEGIKIYRLPIKNLWKNRYPFLKKNRIYHSLIEKIEAESIDYYVANTRFHLPAMLGVKMAKAKGKEAIVIEHGSSYLTLNNPVLDFMLRKIEQLLIGRVKKDTSLFYGVSNEASEWLKTFDIKAKGVLPNAVAVDEYFNQKIEKDEKKLTISYAGRLIPQMKGVEILLSTFSKLSKERKNLELIIAGDGPLLNEVKRKYSQKNIKFLGYVPYEKVLEIDAKSDVFVLMSRSEGFATAMLEAAMLENVIITTPTVGGARDIMPDETYGYIIENNETKLFETLTKVLDNKEHMRLMQKKISKNVLENFTWEQSAKQFIKVFNELDEK | not soluble
MGSDKIHHHHHHMLNAKLLKLPTAAQQHHHEHHQIVVGVRGQAELSIDGSGACLDTWKACLVPTEARHDYCGDQQNHVLVINVDPFCAALSTPLHSDYDKLMRLFEKPRTVQMDNRIQGLVQFAAGEFDRSPDNRALHQHLAASILHCMAERIVDRPPVSSNRNSLNPEDIRRYIVGNLHRKITVQDLAGVACLSVSRFHEIFRQVTGTTPHQFLLQTRLDQAVGLLSSTSLSVSEISYRTGFSSQSALTNALRKHRGITPSRLQLNEHVA | not soluble
